Results taken from patent publication US20060063228A1 (Pfizer, published 2006).
Substitutions are numbered along the chain they refer to. Names and notes keep the numbering of the source.

Key:
[1] = biological target: T1, recombinant human IL-13 (human, UniProt P35225 34-146); experiment: cell-based or functional assay
[2] = biological target: T1, recombinant human IL-13; experiment: Biacore; mAb13.2 immobilized on the chip, dose range of human IL-13 passed over
Procedure: (§1) Several measures were taken to confirm that the murine monoclonal antibody isolated in Example 1.1, i.e., mAb13.2, binds with high affinity and specificity to human IL-13. First, BIACORE™ analyses of three monoclonal antibodies to human IL-13 (mAb13.2, mAb13.4, and mAb13.9) were performed using a 69 RU streptavidin chip to which biotinylated IL-13 had been immobilized. […] Upon buffer exchange, dissociation was slow (FIG. 1). Second, BIACORE™ analysis of mAb13.2 was performed using a Biacore chip to which mAb13.2 had been immobilized. Different concentrations of IL-13 were passed over the chip. Again, rapid binding and slow dissociation was shown (FIG. 2). Third, analysis by ELISA determined that mAb13.2 bound to all forms of human IL-13 tested, including native IL-13 derived from cord blood T cells (FIG. 3). Plates were coated with anti-FLAG™ M2 antibody. The binding of FLAG™-human IL-13 was detected with biotinylated mAb13.2 and streptavidin-peroxidase. […] There was no detectable binding of mAb13.2 to recombinant murine IL-13 (FIG. 3). To confirm the results found by ELISA, the monoclonal antibody, mAb13.2, was coated onto a Biacore chip, and solutions containing recombinant human IL-13 or a polymorphic form of IL-13 (ARG variant), which is expressed at high frequency in patients suffering from asthma (Heinzmann et al. (2000) Hum. Mol. Genet. 9:594), were passed over the chip.

[3] = biological target: T1, recombinant human IL-13; experiment: Biacore; biotinylated IL-13 immobilized on a 69 RU streptavidin (SA) chip, antibody passed over the chip
Procedure: as §1

[4] = biological target: T2, FLAG-human IL-13 (human, UniProt P35225 34-146); experiment: competition ELISA; human IL-13-FLAG immobilized with anti-FLAG antibody, detected with biotinylated mAb13.2; unlabeled antibody varied
T2 construct: Captured on ELISA plates by anti-FLAG M2 antibody; order of tag and IL-13 is not certain; also called IL-13-FLAG; human IL-13-FLAG; not shown: FLAG tag
Procedure: The chimeric antibody, ch13.2, was tested for IL-13 binding. […] Chimeric antibody, ch13.2, was able to competitively bind to IL-13 similarly to mAb13.2 (FIG. 14A). In another test, human peripheral blood monocytes were treated overnight with IL-13 to induce CD23 expression in the presence of various concentrations of mouse mAb13.2 or ch13.2.

[5] = biological target: T3, recombinant murine IL-13 (murine, UniProt P20109 19-131, limits assumed); experiment: competition ELISA; FLAG-human IL-13 captured on anti-FLAG M2 plates and detected with biotinylated mAb13.2 and streptavidin-peroxidase; soluble IL-13 added as competitor of FLAG-human IL-13
T3 sequence (looked up): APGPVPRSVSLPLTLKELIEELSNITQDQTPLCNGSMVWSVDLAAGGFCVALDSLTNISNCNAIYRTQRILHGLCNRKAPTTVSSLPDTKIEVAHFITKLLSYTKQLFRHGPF
Procedure: as §1

[6] = biological target: T1, recombinant human IL-13; experiment: competition ELISA; competitor mAb13.2
[7] = biological target: T2, FLAG-human IL-13; experiment: competition ELISA; IL-13-FLAG immobilized with anti-FLAG antibody, detected with biotinylated mAb13.2; unlabeled antibody varied
[8] = biological target: T1, recombinant human IL-13; experiment: Biacore; h13.2v2 immobilized on the chip, dose range of human IL-13 passed over
[9] = biological target: T4, IL-13 captured by IL-13Rα2 on the surface of A375 human melanoma cells (human, UniProt Q14627 27-380); experiment: flow cytometry; A375 cells pre-incubated with 3 ng/ml hu IL13, stained with biotinylated h13.2v2
T4 construct: whole, on cells; Recombinant human IL-13 (3 ng/ml, or 10 ng/ml for ADCC) contacted to A375 cells; also called IL-13-loaded A375 cells; cells expressing IL-13Rα2
Source text: The cell signaling form of the IL-13 receptor, which includes the IL-13Rα1 and IL-4Rα polypeptides, is found on the surface of cell types that respond to the cytokine. IL-13Rα2 is not typically expressed on the surface of IL-13-responsive cells, but has been reported on tumors of the brain, head, and neck (Kawakami et al. (2003) Clin. Cancer Res. 9:6381-8; Mintz et al. (2002) Neoplasia 4:388-99; Liu et al. (2000) Cancer Immunol. Immunother. 49:319-24). IL-13Rα2 expression may also be induced on IFNγ-treated primary human monocytes (Daines et al. (2002) J. Biol. Chem. 277:10387-93), or TNFα- or IL-13-treated primary human fibroblasts (Yoshikawa et al. (2003) Biochem. Biophys. Res. Commun. 312:1248-55). This receptor is not competent to mediate signaling responses to IL-13 (Kawakami et al. (2001) Blood 97:2673-9), but instead appears to act as a decoy receptor, competing for productive IL-13 interactions with IL-13Rα1 (Feng et al. (1998) Lab. Invest. 78:591-602). IL-13Rα2 has a high affinity for IL-13 (Andrews et al. (2002) J. Biol. Chem. 277:46073-8), and appears to interact primarily with the C-terminal region of the cytokine (Madhankumar et al. (2002) J. Biol. Chem. 277:43194-205), which is not predicted to include the h13.2v2 binding site. Therefore, it was examined whether h13.2v2 could interact with IL-13 captured by IL-13Rα2 on the cell surface. […]

T1 sequence (P35225 other isoform, or with tags, fused parts or gaps): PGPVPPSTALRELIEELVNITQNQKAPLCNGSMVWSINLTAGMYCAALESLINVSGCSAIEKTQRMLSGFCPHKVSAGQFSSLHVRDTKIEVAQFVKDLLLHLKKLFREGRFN
T2 sequence (P35225 other isoform, or with tags, fused parts or gaps limits assumed): as the sequence (P35225 other isoform, or with tags, fused parts or gaps) above
T4 sequence (chain, as listed by the source, chain 1 of 2): as the sequence (P35225 other isoform, or with tags, fused parts or gaps) above
T4 sequence (Q14627 27-380, chain 2 of 2): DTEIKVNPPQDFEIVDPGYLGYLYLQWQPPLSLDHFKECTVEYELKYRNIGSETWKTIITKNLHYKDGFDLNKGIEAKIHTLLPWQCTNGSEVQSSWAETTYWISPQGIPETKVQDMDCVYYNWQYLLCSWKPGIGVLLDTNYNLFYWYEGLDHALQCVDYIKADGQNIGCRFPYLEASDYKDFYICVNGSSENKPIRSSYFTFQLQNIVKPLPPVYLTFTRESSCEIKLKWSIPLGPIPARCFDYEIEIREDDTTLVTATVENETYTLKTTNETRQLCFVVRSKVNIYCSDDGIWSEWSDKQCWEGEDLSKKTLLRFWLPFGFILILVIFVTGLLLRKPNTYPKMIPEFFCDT

B1: murine monoclonal antibody mAb13.2 (antibody, V domains shown)
VH: EVKLVESGGGLVKPGGSLKLSCAASGFTFISYAMSWVRQTPEKRLEWVASISSGGNTYYPDSVKGRFTISRDNARNILYLQMSSLRSEDTAMYYCARLDGYYFGFAYWGQGTTVTVSS
VL: DIVLTQSPASLAVSLGQRATISCKASESVDNYGKSLMHWYQQKPGQSPKLLIYRASNLESGIPARFSGSGSRTDFTLTINPVEADDVATYYCQQSNEDPWTFGGGTKLEIK
notes: also called mouse mAb13.2; biotinylated mAb13.2
IC50 (read off the curve), TF1 proliferation [1]: ~300 pM
Ka [2]: 2.1e+09 M⁻¹
Kd [2]: 470 pM
Ka [3]: 4e+10 M⁻¹
Kd [3]: 25 pM
koff [3]: 2.7e-06 s⁻¹
kon [3]: 110000 M⁻¹ s⁻¹
IC50 (read off the curve) [4]: ~1000 pM
binding result [5]: no binding (tested: about 3000 ng/ml)

B2: chimeric mAb13.2 antibody (ch13.2) (antibody, human IgG1, kappa, V domains shown)
VH: B1 VH
VL: DIVLTQSPASLAVSLGQRATISCKASESVDNYGKSLMHWYQQKPGQSPKLLIYRASNLESGIPARFSGSGSRTDFTLTINPVEADDVATYYCQQSNEDPWTFGGGTKLEIKR
IC50 (read off the curve) [4]: ~1000 pM

B3: partially humanized mAb13.2 (h13.2v1) (antibody, human IgG1, kappa, V domains shown)
VH: EVKLVESGGGLVQPGGSLRLSCAASGFTFISYAMSWVRQAPGKGLEWVASISSGGNTYYPDSVKGRFTISRDNAKNSLYLQMNSLRAEDTAVYYCARLDGYYFGFAYWGQGTLVTVSS
VL: DIQLTQSPSSLSASVGDRVTITCKASESVDNYGKSLMHWYQQKPGKAPKLLIYRASNLESGVPSRFSGSGSRTDFTLTISSLQPEDFATYYCQQSNEDPWTFGGGTKVEIKR
notes: Human IgG1 mutated (L234A/G237A), human kappa; also called hu13.2 V1
binding result [6]: binds
binding result [7]: binds

B4: fully humanized mAb13.2 (h13.2v3) (antibody, human IgG1, kappa, V domains shown)
VH: B3 VH with K3Q, Q13K, A49S, L113T
VL: B2 VL with L15P, S22T, S47P, I62V, R72G, D85N, V87T, T89N, L108V
binding result [6]: binds

B5: fully humanized mAb13.2 (h13.2v2) (antibody, human IgG1, kappa, V domains shown)
VH: B3 VH with K3Q
VL: B3 VL with L4M, R72G
notes: Human IgG1 mutated (L234A/G237A), human kappa; also called hu13.2 V2; biotinylated h13.2v2
Ka [8]: 9.3e+09 M⁻¹
Kd [8]: 110 pM
binding result [9]: binds
